Measurements: patent US20160122421A1

Legend:
[1] = molecular target: humanized variant of IPN002 (hu-IPN002); test: competition ELISA; competitor: biotin-Tau 15-44 on hu-IPN002
[2] = molecular target: 383 amino acid recombinant tau (UniProt P10636); test: ELISA, solid phase, biotin-rTau383
[3] = molecular target: biotin-Tau 15-24; test: ELISA, serially diluted hu-IPN002 with biotin-Tau 15-24
[4] = molecular target: biotin-phospho Tau 15-24; test: ELISA, serially diluted hu-IPN002 with biotin-Tau 15-24 PHOSPHO
[5] = molecular target: 383 amino acid recombinant tau (UniProt P10636); test: ELISA, solution phase, biotin-rTau383
[6] = molecular target: 383 amino acid recombinant tau (UniProt P10636); test: ELISA binding assay, A450
[7] = molecular target: 383 amino acid recombinant tau (UniProt P10636); test: peptide binding ELISA (A450), hu-IPN002 titrated; table under the curves
[8] = molecular target: 383 amino acid recombinant tau (UniProt P10636); test: solid phase ELISA, biotin-rTau383, A450
[9] = molecular target: 383 amino acid recombinant tau (UniProt P10636); test: peptide binding ELISA (A450), hu-IPN002 titrated
[10] = molecular target: 383 amino acid recombinant tau (UniProt P10636); test: ELISA, serially diluted hu-IPN002 with biotin-rTau383
[11] = molecular target: 383 amino acid recombinant tau (UniProt P10636); test: solution phase ELISA, biotin-rTau383, A450

Sequence of 383 amino acid recombinant tau (P10636 other isoform, or with tags, fused parts or gaps limits assumed): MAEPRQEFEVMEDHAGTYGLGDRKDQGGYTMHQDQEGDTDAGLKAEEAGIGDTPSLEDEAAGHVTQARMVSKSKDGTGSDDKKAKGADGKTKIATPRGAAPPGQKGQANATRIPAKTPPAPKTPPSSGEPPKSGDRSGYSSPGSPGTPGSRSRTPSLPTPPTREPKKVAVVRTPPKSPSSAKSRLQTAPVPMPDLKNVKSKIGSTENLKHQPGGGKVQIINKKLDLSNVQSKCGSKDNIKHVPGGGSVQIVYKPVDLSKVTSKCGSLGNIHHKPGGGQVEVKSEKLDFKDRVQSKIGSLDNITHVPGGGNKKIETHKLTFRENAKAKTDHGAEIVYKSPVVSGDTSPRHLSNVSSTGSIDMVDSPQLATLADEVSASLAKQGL
Sequence of Peptide 2 (Tau amino acids 15-44) (peptide): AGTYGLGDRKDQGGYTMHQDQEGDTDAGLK

Substance | IC50 (read off the curve) [1] | Kd [2] | Kd [3] | Kd [4] | Kd [5] | EC50 (read off the curve) [6] | Kd [6] | Kd [7] | EC50 (read off the curve) [8] | EC50 (read off the curve) [9] | Kd [10] | EC50 (read off the curve) [11]
Peptide 2 (Tau amino acids 15-44) | 100 nM | – | – | – | – | – | – | – | – | – | – | –
humanized variant of IPN002 (hu-IPN002) (antibody) | – | 0.107 nM | 0.754 nM | 0.768 nM | 0.114 nM | 0.3 nM | 0.288 nM | 0.288 nM | 0.1 nM | 0.3 nM | 0.283 nM | 0.1 nM
